Measurements reported in paper PMC4205155.

Molecular target: T1, CREB B-ZIP DNA binding domain (UniProt P16220 269-327)
T1 sequence: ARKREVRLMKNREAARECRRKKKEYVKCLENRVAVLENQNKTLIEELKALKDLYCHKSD
Assay: EMSA

B1: CRE 28-mer unmethylated (U) (dsDNA)
DNA 1: GTCAGTCAGATGACGTCATATCGGTCAG
DNA 2: CTGACCGATATGACGTCATCTGACTGAC
B1: binds.
